Read-outs that look alike come from different tables or passages of the source.
What was measured:
[1] = biological target: HLA-A*0301 (human); experiment: competition with 125I-labelled probe peptide for purified HLA, gel filtration; relative to standard peptide
[2] = biological target: HLA-A*0301 (human); experiment: competition with radiolabeled probe peptide for purified HLA, gel filtration
[3] = biological target: HLA-A*0301 (human); experiment: competitive inhibition of 125I-labelled probe peptide binding to purified HLA; relative to standard peptide
[4] = biological target: HLA-A*1101 (human); experiment: as above
[5] = biological target: HLA-A*3101 (human); experiment: as above
[6] = biological target: HLA-A*3301 (human); experiment: as above
[7] = biological target: HLA-A*0301 (human); experiment: competition with 125I-labelled probe peptide for purified HLA, gel filtration; details: remark: other sources report otherwise
[8] = biological target: HLA-A*1101 (human); experiment: as above; details: remark: other sources report otherwise
[9] = biological target: HLA-A*3301 (human); experiment: as above; details: remark: other sources report otherwise
[10] = biological target: HLA-A*6801 (human); experiment: as above; details: remark: other sources report otherwise
[11] = biological target: HLA-A*3101 (Human); details: remark: other sources report otherwise
[12] = biological target: HLA-B*0702 (Human); experiment: competition with 125I-labelled probe peptide for purified HLA, gel filtration
[13] = biological target: HLA-B*3501 (Human); experiment: as above
[14] = biological target: HLA-B*5101 (Human); experiment: as above
[15] = biological target: HLA-B*5301 (Human); experiment: as above
[16] = biological target: HLA-B*5401 (Human); experiment: as above
[17] = biological target: HLA-A*0301 (human)
[18] = biological target: HLA-A*0301 (human); experiment: competition with 125I-labelled probe peptide for purified HLA-A*0301, gel filtration; relative binding against the standard peptide; details: scale: ratio
[19] = biological target: HLA-A*1101 (human); details: remark: other sources report otherwise
[20] = biological target: HLA-A*3301 (human); details: remark: other sources report otherwise
[21] = biological target: HLA-A*0301 (human); experiment: competition with 125I probe peptide on purified HLA-A*0301; relative to standard peptide 941.12; details: remark: other sources report otherwise
[22] = biological target: HLA-A*3101 (human); experiment: competition with 125I probe peptide on purified HLA-A*3101; relative to standard peptide 941.12; details: remark: other sources report otherwise
[23] = biological target: HLA-A*6801 (human); experiment: competition with 125I probe peptide on purified HLA-A*6801; relative to standard peptide 941.12; details: remark: other sources report otherwise
[24] = biological target: HLA-B*0702 (Human); experiment: competition with 125I-labeled probe peptide for purified HLA, gel filtration
[25] = biological target: HLA-A*0301 (human); experiment: competition with 125I-labelled probe peptide for purified HLA, gel filtration; value relative to standard peptide
[26] = biological target: T1, HLA-DRB1*0101 (human); experiment: inhibition of 125I-labelled probe peptide binding to purified HLA-DR; gel filtration; details: remark: other sources report otherwise
T1 chain 1: not shown
T1 chain 2: not shown

[27] = biological target: T2, HLA-DRB1*0401 (human); experiment: as above; details: remark: other sources report otherwise
T2 chain 1: not shown
T2 chain 2: not shown

[28] = biological target: T3, HLA-DRB1*0701 (human); experiment: as above; details: remark: other sources report otherwise
T3 chain 1: not shown
T3 chain 2: not shown

[29] = remark: other sources report otherwise

B1: HBV NUC 29 GMDIDPYK (peptide)
peptide: GMDIDPYK
modifications: not checked
B1 was tested. Which binding affinity ratio (IC50 of standard peptide / IC50 of test peptide) [1] did it give?
The binding affinity ratio (IC50 of standard peptide / IC50 of test peptide) was 0.0006.

B2: HBV ENV 175 … (peptide)
peptide: LLVLQAGFF
modifications: not checked
Which binding affinity ratio (IC50 of standard peptide / IC50 of test peptide) [2] does the source give for B2 here?
The binding affinity ratio (IC50 of standard peptide / IC50 of test peptide) was 0.0006.

B3: HBV POL 567 … (peptide)
peptide: GIHLNPNKTK
modifications: not checked
With B3 as the binder, how does the binding affinity ratio (IC50 of standard peptide / IC50 of test peptide) [1] read?
The binding affinity ratio (IC50 of standard peptide / IC50 of test peptide) was 0.0025.

B4: HBV POL 99 peptide LTVNEKRR (peptide)
peptide: LTVNEKRR
modifications: not checked
For B4, which binding affinity ratio (IC50 of standard peptide / IC50 of test peptide) [3] is on record?
The binding affinity ratio (IC50 of standard peptide / IC50 of test peptide) was -0.0002.

And the binding affinity ratio (IC50 of standard peptide / IC50 of test peptide) [4]?
The binding affinity ratio (IC50 of standard peptide / IC50 of test peptide) was -0.0002.

And the binding affinity ratio (IC50 of standard peptide / IC50 of test peptide) [5]?
The binding affinity ratio (IC50 of standard peptide / IC50 of test peptide) was -0.0009.

What about the binding affinity ratio (IC50 of standard peptide / IC50 of test peptide) [6] of the same binder?
Its binding affinity ratio (IC50 of standard peptide / IC50 of test peptide) is -0.0009.

B5: … (HBV NUC 26) (peptide)
peptide: WLWGMDIDPYK
modifications: not checked
Which results are given for B5?
binding affinity ratio (IC50 of standard peptide / IC50 of test peptide) [7]: 0.003; binding affinity ratio (IC50 of standard peptide / IC50 of test peptide) [8]: 0.0013; binding affinity ratio (IC50 of standard peptide / IC50 of test peptide) [9]: 0.0039; binding affinity ratio (IC50 of standard peptide / IC50 of test peptide) [10]: 0.049

B6: Peptide 1.0219 (HBV X 1550, …) (peptide)
peptide: FVLGGCRHK
modifications: not checked
With B6 as the binder, how does the IC50 [11] read?
Its IC50 is 1500 nM.

B7: HBV NUC 129 peptide … (peptide)
peptide: PPAYRPPNA
modifications: not checked
B7 was tested. Which binding affinity ratio (IC50 of standard peptide / IC50 of test peptide) [12] did it give?
Its binding affinity ratio (IC50 of standard peptide / IC50 of test peptide) is 0.0001.

What about the binding affinity ratio (IC50 of standard peptide / IC50 of test peptide) [13] of the same binder?
The binding affinity ratio (IC50 of standard peptide / IC50 of test peptide) was 0.0001.

And the binding affinity ratio (IC50 of standard peptide / IC50 of test peptide) [14]?
The binding affinity ratio (IC50 of standard peptide / IC50 of test peptide) was 0.0001.

And the binding affinity ratio (IC50 of standard peptide / IC50 of test peptide) [15]?
The binding affinity ratio (IC50 of standard peptide / IC50 of test peptide) was 0.0002.

What about the binding affinity ratio (IC50 of standard peptide / IC50 of test peptide) [16] of the same binder?
The binding affinity ratio (IC50 of standard peptide / IC50 of test peptide) was 0.0003.

B8: HBV POL 528 peptide … (peptide)
peptide: RAFPHCLAF
modifications: not checked
B8 was tested. Which binding affinity ratio (IC50 of standard peptide / IC50 of test peptide) [17] did it give?
Its binding affinity ratio (IC50 of standard peptide / IC50 of test peptide) is 0.0015.

B9: HBV NUC 175 peptide … (peptide)
peptide: TTVVRRRGR
modifications: not checked
Which binding affinity ratio (relative to standard peptide) [18, 29] does the source give for B9 here?
Its binding affinity ratio (relative to standard peptide) is 0.0008.

B10: HBV POL 716 peptide … (peptide)
peptide: TAELLAACFAR
modifications: not checked
Which results are given for B10?
binding affinity ratio (IC50 standard peptide / IC50 test peptide) [19]: 0.0023; binding affinity ratio (IC50 standard peptide / IC50 test peptide) [20]: 0.16; binding affinity ratio (IC50 standard peptide / IC50 test peptide) [21]: 0.0006; binding affinity ratio (IC50 standard peptide / IC50 test peptide) [22]: 0.0066; binding affinity ratio (IC50 standard peptide / IC50 test peptide) [23]: 0.059; binding affinity ratio (relative to standard peptide) [18, 29]: 0.0006

B11: HBV POL 398 peptide … (peptide)
peptide: VPNLQSLTNL
modifications: not checked
For B11, which binding affinity ratio (IC50 of standard peptide / IC50 of test peptide) [24] is on record?
The binding affinity ratio (IC50 of standard peptide / IC50 of test peptide) was 0.0006.

B12: HBV POL 739 peptide SVVLSRKY (peptide)
peptide: SVVLSRKY
modifications: not checked
For B12, which binding affinity ratio (relative to standard peptide) [18] is on record?
Its binding affinity ratio (relative to standard peptide) is -0.0002.

B13: HBV NUC 75 NLEDPASR (peptide)
peptide: NLEDPASR
modifications: not checked
Which binding affinity ratio (IC50 of standard peptide / IC50 of test peptide) [25] does the source give for B13 here?
Its binding affinity ratio (IC50 of standard peptide / IC50 of test peptide) is -0.0002.

B14: HBV NUC 29 … (peptide)
peptide: GMDIDPYKEF
modifications: not checked
For B14, which binding affinity ratio (IC50 of standard peptide / IC50 of test peptide) [1] is on record?
Its binding affinity ratio (IC50 of standard peptide / IC50 of test peptide) is -0.0003.

B15: … (HBV X 52, 15-mer) (peptide)
peptide: HLSLRGLPVCAFSSA
modifications: not checked
With B15 as the binder, how does the binding affinity ratio (IC50 of standard peptide / IC50 of test peptide) [26] read?
The binding affinity ratio (IC50 of standard peptide / IC50 of test peptide) was 1.3.

And the binding affinity ratio (IC50 of standard peptide / IC50 of test peptide) [27]?
The binding affinity ratio (IC50 of standard peptide / IC50 of test peptide) was 0.0028.

And the binding affinity ratio (IC50 of standard peptide / IC50 of test peptide) [28]?
The binding affinity ratio (IC50 of standard peptide / IC50 of test peptide) was 0.013.

B16: Peptide 26.0153 (HBV X 64, …) (peptide)
peptide: SSAGPCALR
modifications: not checked
For B16, which IC50 [11] is on record?
Its IC50 is 55 nM.

B17: HBV POL 153 peptide KAGILYKR (peptide)
peptide: KAGILYKR
modifications: not checked
How did the binding affinity ratio (IC50 of standard peptide / IC50 of test peptide) [4] turn out when B17 was run?
Its binding affinity ratio (IC50 of standard peptide / IC50 of test peptide) is -0.0002.

What about the binding affinity ratio (IC50 of standard peptide / IC50 of test peptide) [5] of the same binder?
The binding affinity ratio (IC50 of standard peptide / IC50 of test peptide) was 0.0015.

And the binding affinity ratio (IC50 of standard peptide / IC50 of test peptide) [6]?
The binding affinity ratio (IC50 of standard peptide / IC50 of test peptide) was -0.0009.

Source: patent US20090311283A1
